For series [1], the target named is FtsZ (UniProt P0A9A6). The series can be described thus: FRAP; membrane-bound filament network at steady state (15 min), small area bleached; half-time from fit to I(t) = a(1 - exp(-bt)).
Series [2] has as its target FtsZ (UniProt P0A9A6). The series is described as follows: single-molecule tracking by TIRF microscopy; small amounts of Cy5-labelled FtsZ (<2 nM) in 1.5 uM Alexa488-FtsZ, or of ZapA-Cy5 in unlabeled ZapA with 1.5 uM Alexa488-FtsZ, on supported bilayers; lifetime from a mono-exponential fit, corrected for photobleaching.
Series [3] deals with FtsZ (UniProt P0A9A6). Described as above. This is another data set of the same source.
Series [4] addresses T1, FtsZ (UniProt P0A9A6 1-383, Cy5 or Alexa488 label on part of the protein (30% labelled in the self-organization assay; <2 nM Cy5-labelled FtsZ in 1.5 uM Alexa488-labelled FtsZ for single molecules); labelled site not stated).
T1 sequence (looked up): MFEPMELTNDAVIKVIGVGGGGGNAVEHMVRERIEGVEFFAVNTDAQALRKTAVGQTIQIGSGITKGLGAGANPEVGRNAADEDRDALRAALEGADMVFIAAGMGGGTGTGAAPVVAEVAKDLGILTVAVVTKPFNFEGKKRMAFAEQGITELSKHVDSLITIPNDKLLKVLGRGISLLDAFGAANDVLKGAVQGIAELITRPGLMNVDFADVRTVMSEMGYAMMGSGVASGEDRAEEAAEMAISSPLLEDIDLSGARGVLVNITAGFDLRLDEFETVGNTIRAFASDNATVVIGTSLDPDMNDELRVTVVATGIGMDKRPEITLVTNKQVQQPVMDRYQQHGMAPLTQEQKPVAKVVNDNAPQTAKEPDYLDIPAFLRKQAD
The series can be described thus: cell-based or functional assay.

Series [5] concerns the molecule itself. The series can be described thus: SEC; size-exclusion chromatography of ZapA wild type and mutants; conditions not shown. A general note: Size exclusion chromatography separates by hydrodynamic size, large species first.

Where two headings read alike, the source gives them in different places.

Turning to “ZapA-Cy5 (from UniProt P0ADS2 1-109) (natural protein)”, in the series with FtsZ [1], the FRAP half-time of recovery is 3.01 s. The single-molecule lifetime with FtsZ [2] is 0.94 s; with FtsZ [3], 0.95.

B1: ZapA wild type (natural protein, UniProt P0ADS2 1-109, looked up)
chain: MSAQPVDIQIFGRSLRVNCPPDQRDALNQAADDLNQRLQDLKERTRVTNTEQLVFIAALNISYELAQEKAKTRDYAASMEQRIRMLQQTIEQALLEQGRITEKTNQNFE
notes: ZapA, FtsZ-associated protein; also called ZapA WT; source: purified protein; protocols in the Supplementary Information
In the case of B1, in the series with FtsZ [4], the “EC50 of ZapA for the correlation length of the FtsZ filament network at steady state (ρss)” value was 1050 nM and the “EC50 of ZapA for the mean curvature of the FtsZ filament network at steady state (kss)” value came to 840 nM. Besides, the “stoichiometry N” value in series [5] came out at 4.

A word on the stoichiometry N: it is a count of units in the complex or per binding partner.

The values above are taken from PMC6917738, “Cooperative ordering of treadmilling filaments in cytoskeletal networks of FtsZ and its crosslinker ZapA” (Nature Communications, 2019).
